{"source": "paper PMC11636682", "about": "(Science Advances, 2024)", "biological_target": "T1, phosphodiesterase-δ (PDEδ) (UniProt O43924 1-150)", "T1 construct": "also called His6-MBP-tev-PDEδ; source: E. coli, purified", "T1 sequence (O43924 whole entry, stated change not applied)": "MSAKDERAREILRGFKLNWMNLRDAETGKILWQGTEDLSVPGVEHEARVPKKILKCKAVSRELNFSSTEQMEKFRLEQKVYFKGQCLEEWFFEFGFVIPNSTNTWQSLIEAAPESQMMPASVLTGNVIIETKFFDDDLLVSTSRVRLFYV", "test": "ITC; 1 mM KRAS4a(167–186)HVR-FMe peptide in the syringe, 200 μM PDEδ in the cell; 25°C; 20 mM Hepes pH 7.3, 150 mM NaCl, 5 mM MgCl2, 1 mM TCEP; single binding site model", "details": "both partners purified", "note": "No end group written: not given here. *: point of attachment. Farnesyl = CC(C)=CCC/C(C)=C/CC/C(C)=C/C*", "data": [{"binder": "RLKKISKEEKTPGCVKIKKC(Farnesyl)-OMe (peptide, UniProt P01116-1 167-186, looked up, KRAS splice variant KRAS4a, hypervariable region, residues 167 to 186 (20-mer ending at the prenylated cysteine); also called prenylated 20-residue KRAS4a HVR peptide; KRAS4a-HVR peptide; source: synthetic peptide, bought: AnaSpec Peptides Inc)", "note": "[KRAS4a(167–186)HVR-FMe peptide]", "values": [{"measurement": "Kd", "result": 27, "unit": "µM"}]}]}
